From paper PMC11196586, “Molecular insight into interactions between the Taf14, Yng1 and Sas3 subunits of the NuA3 complex” (Nature Communications, 2024)

How the values were obtained:
Taf14ET = biological target: T1, Taf14ET (Saccharomyces cerevisiae, UniProt P35189); assay: NMR 1H,15N HSQC titration (chemical shift perturbations), Taf14ET; assay type: binding; conditions: 15N-labelled Taf14ET, 298 K, increasing amounts of mutated peptide
T1 construct: Taf14ET (aa 168-243); His; made in house; host or cells: Escherichia coli Rosetta-2 (DE3) pLysS
T1 sequence (P35189 168-243): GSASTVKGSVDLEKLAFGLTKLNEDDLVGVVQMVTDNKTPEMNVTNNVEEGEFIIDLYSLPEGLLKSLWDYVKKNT
Method: (§1) Nuclear magnetic resonance experiments were performed at 298 K on Varian INOVA 900 MHz (for Taf14FL) and 600 MHz (for Taf14ET and Taf14YEATS) spectrometers equipped with cryogenic probes as described. The NMR samples contained 0.05–0.2 mM uniformly ^15N-labeled Taf14 proteins in 50 mM Tris-HCl (pH 6.8–7.5), 150 mM NaCl, 0–5 mM DTT or 1x PBS (pH 6.6–7.5), supplemented with up to an additional 100 mM NaCl, 0–5 mM DTT or 0.2 mM TCEP and 8-10% D2O. Binding was characterized by monitoring chemical shift changes in ^1H,^15N HSQC spectra of the proteins induced by the addition of wild type or mutated Yng1EBM (aa 113-124), Sas3EBM (aa 111-122) and Yng1EBM-PHD (aa 100-219). NMR data were processed and analyzed using NMRPipe as previously described, with the apparent Kds being determined by a nonlinear least-squares analysis and a 1:1 stoichiometry in GraphPad Prism using the equation:2 Δδ=ΔδmaxL+P+Kd−L+P+Kd^2−4PL/2P Where [L] is the concentration of the peptide, [P] is concentration of the protein, Δδ is the observed chemical shift change, and Δδ max is the normalized chemical shift change at saturation. Normalized chemical shift changes were calculated using the equation δ=ΔδH^2+(ΔδN/5)^2 (3), where Δδ is the change in chemical shift in parts per million (ppm).

Taf14YEATS = assay: NMR 1H,15N HSQC titration, Taf14YEATS; assay type: binding, Saccharomyces cerevisiae; conditions: 298 K
Method: as §1

Taf14FL-601 DNA complex = assay: EMSA of 601 Widom DNA with Taf14FL with or without peptide; assay type: biochemical, Saccharomyces cerevisiae; conditions: protein preincubated with peptide at 1:2.5 molar ratio; 8% native polyacrylamide gel
Method: (§2) EMSAs were performed by mixing increasing amounts of Taf14 proteins with 0.25 pmol/lane of 601 DNA in 25 mM Tris-HCl pH 7.5, 25-100 mM NaCl, 0.2 mM ethylenediaminetetraacetic acid (EDTA), 10% glycerol and 1 mM DTT in 10 µL reaction volume. The Taf14 proteins were either preincubated with Yng1EBM at a 1:2.5 molar ratio or with Yng1EBM and Sas3EBM at a 1:1:1 molar ratio for a minimum of 1 h on ice or used without peptides prior to addition of DNA. Reaction mixtures were incubated at 4 °C for 10 min (2-2.5 µl of loading dye was added to each sample) and loaded onto an 8% native polyacrylamide gel. Electrophoresis was performed in 0.5x Tris-borate-EDTA (TBE) at 80–120 V on ice. The gels were stained with SYBR Gold (Thermo Fisher Sci) and visualized by Blue LED (UltraThin LED Illuminator-GelCompany).

Taf14ET-601 DNA complex = assay: EMSA of 601 Widom DNA with Taf14ET with or without peptide; assay type: biochemical, Saccharomyces cerevisiae; conditions: protein preincubated with peptide at 1:2.5 molar ratio; 8% native polyacrylamide gel
Method: as §2

[1] = biological target: T2, Taf14FL (full length Taf14, aa 1-244) (S. cerevisiae), P35189; assay: mass photometry; Taf14FL with Yng1EBM (1:1 molar ratio), final 100 nM, room temperature, 50 mM Tris pH 7.5, 150 mM NaCl, 1 mM TCEP; conditions: remark: other sources report otherwise
T2 chain: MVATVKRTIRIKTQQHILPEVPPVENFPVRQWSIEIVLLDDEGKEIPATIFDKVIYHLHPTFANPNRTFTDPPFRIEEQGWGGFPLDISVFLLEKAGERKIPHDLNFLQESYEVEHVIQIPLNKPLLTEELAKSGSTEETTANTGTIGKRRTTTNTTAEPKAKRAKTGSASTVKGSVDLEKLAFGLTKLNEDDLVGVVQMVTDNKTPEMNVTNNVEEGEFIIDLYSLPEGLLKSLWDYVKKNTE

[2] = biological target: the molecule itself; assay: crystal structure; Taf14ET co-crystallized with Yng1EBM peptide (molar ratio 1:2.5); 40% PEG 400, 0.1 M Tris pH 8.5, 0.2 M LiSO4; 1.9 Å
[3] = biological target: T3, Taf14FL (full length Taf14, aa 1-244) (S. cerevisiae, UniProt P35189 1-244); assay: other fluorescence titration; tryptophan fluorescence of Taf14FL with Yng1EBM in the presence of H3K9cr peptide at a 1:10 Taf14FL:H3K9cr molar ratio; apparent Kd, 1:1 stoichiometry; conditions: both partners purified
T3 construct: Taf14, S. cerevisiae, UniProt P35189, aa 1-244; uniformly 15N-labelled for NMR; also called transcription initiation factor subunit 14
T3 sequence (looked up): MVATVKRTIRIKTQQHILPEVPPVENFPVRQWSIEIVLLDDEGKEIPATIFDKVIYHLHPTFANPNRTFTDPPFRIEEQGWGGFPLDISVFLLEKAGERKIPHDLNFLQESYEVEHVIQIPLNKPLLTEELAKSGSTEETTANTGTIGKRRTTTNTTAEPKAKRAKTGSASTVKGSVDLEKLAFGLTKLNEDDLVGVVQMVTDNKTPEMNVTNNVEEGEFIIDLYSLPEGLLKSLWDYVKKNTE

His-Taf14FL (aa 1-244) = biological target: T4, His-Taf14FL (aa 1-244) (S. cerevisiae, UniProt P35189 1-244, labeled using a His-Tag Labeling Kit RED-tris-NTA (2nd Generation)); assay: MST; His-tagged Taf14 labeled with RED-tris-NTA, kept at 10 nM; unlabeled peptide added stepwise; 20 mM Tris-HCl pH 7.5, 150 mM NaCl, 2.5 mM DTT or 0-0.2 mM TCEP; apparent Kd, 1:1 stoichiometry; conditions: both partners purified
T4 construct: Taf14, S. cerevisiae, UniProt P35189, aa 1-244; His-tagged form used for MST; source: E. coli Rosetta-2 (DE3) pLysS, purified (Ni-NTA, SEC)
T4 sequence (looked up): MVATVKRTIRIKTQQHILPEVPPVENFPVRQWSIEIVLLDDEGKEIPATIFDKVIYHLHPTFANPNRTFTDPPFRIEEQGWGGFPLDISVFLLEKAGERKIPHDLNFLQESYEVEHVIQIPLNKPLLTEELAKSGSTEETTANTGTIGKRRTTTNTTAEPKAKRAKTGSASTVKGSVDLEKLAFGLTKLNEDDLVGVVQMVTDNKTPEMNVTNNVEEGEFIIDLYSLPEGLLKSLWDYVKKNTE

[4] = biological target: T3, Taf14FL (full length Taf14, aa 1-244); assay: other fluorescence titration; tryptophan fluorescence, 25 °C; 1 μM Taf14ET or Taf14FL, increasing peptide; 50 mM Tris-HCl pH 6.8 or 7.5, 150 mM NaCl, 1 mM DTT or 0.2 mM TCEP; excitation 295 nm; apparent Kd, 1:1 stoichiometry; conditions: both partners purified
[5] = biological target: T5, Taf14ET (extra-terminal domain of Taf14, aa 168-243) (S. cerevisiae, UniProt P35189 168-243); assay: as above; conditions: both partners purified
T5 construct: Taf14, S. cerevisiae, UniProt P35189, ET domain, aa 168-243; Uniformly 15N-labelled for NMR; also called ET domain of Taf14
T5 sequence (looked up): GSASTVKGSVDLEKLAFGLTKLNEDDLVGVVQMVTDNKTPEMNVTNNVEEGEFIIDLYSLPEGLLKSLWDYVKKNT

[6] = biological target: T5, Taf14ET (extra-terminal domain of …); assay: NMR titration; 1H,15N HSQC of 0.05-0.2 mM 15N-labeled Taf14 proteins, 298 K, unlabeled peptide or Yng1EBM-PHD added; Tris-HCl or PBS, pH 6.6-7.5; apparent Kd from CSPs, 1:1 stoichiometry; conditions: both partners purified

V116D Sas3EBM: Sas3EBM peptide with single point substitution V116D (SEELKDRIKYDS)
binding of wild type Taf14ET judged by CSPs in 1H,15N HSQC spectra (Taf14ET): abrogated binding

Ac-EPKLLLKINLKK-NH2 [Yng1EBM]
CSPs induced in 15N-labeled Taf14YEATS (Taf14YEATS): No CSPs
effect of peptide on binding of Taf14FL to 601 DNA (EMSA) (Taf14FL-601 DNA complex): enhanced
effect of peptide on DNA binding activity of isolated Taf14ET (EMSA) (Taf14ET-601 DNA complex): increased

I118D Sas3EBM: Sas3EBM peptide with single point substitution I118D (SEELKVRDKYDS)
binding of wild type Taf14ET judged by CSPs in 1H,15N HSQC spectra (Taf14ET): abrogated binding

I120D Yng1EBM: Yng1EBM peptide with I120 replaced with aspartate (EPKLLLKDNLKK)
binding of wild type Taf14ET judged by CSPs in 1H,15N HSQC spectra (Taf14ET): almost negligible CSPs

B1: Taf14FL (full length Taf14, aa 1-244), P35189 1-244 (natural protein)
chain: MVATVKRTIRIKTQQHILPEVPPVENFPVRQWSIEIVLLDDEGKEIPATIFDKVIYHLHPTFANPNRTFTDPPFRIEEQGWGGFPLDISVFLLEKAGERKIPHDLNFLQESYEVEHVIQIPLNKPLLTEELAKSGSTEETTANTGTIGKRRTTTNTTAEPKAKRAKTGSASTVKGSVDLEKLAFGLTKLNEDDLVGVVQMVTDNKTPEMNVTNNVEEGEFIIDLYSLPEGLLKSLWDYVKKNTE
stoichiometry N [1]: 2

B2: Yng1EBM peptide (aa 113-124 of Yng1), Ac-EPKLLLKINLKK-NH2 (peptide)
peptide: Ac-EPKLLLKINLKK-NH2
notes: also called Yng1 peptide; source: synthetic peptide (Synpeptide)
stoichiometry N [2]: 2
Kd [3]: 900 nM
Kd (His-Taf14FL (aa 1-244)): 1200 nM
Kd [4]: 1100 nM
Kd [5]: 600 nM

B3: L116D Yng1EBM peptide (aa 113-124 of Yng1) (peptide, UniProt Q08465 113-124, looked up)
peptide: EPKDLLKINLKK
notes: The wild-type peptide is Ac-...-NH2; source: peptide
Kd [6]: 180000 nM
